From patent publication US11072592B2, “Small molecules that enable cartilage rejuvenation” (The Regents of the University of California, priority 2015, dated 2021)

Tests used:
pSTAT3 and MYC [1] = assay: Western blot of pSTAT3 and MYC in adult pig articular chondrocytes; assay type: cell-based; settings: adult pig articular chondrocytes; for ability of both LIF and RCGD 423 to induce increases in pSTAT3 and MYC: inhibitor plus LIF or RCGD 423; for levels of MYC / levels of pSTAT3: treated vs untreated, relative to histone H3
Description: Only early passages of chondrocytes (passage 0-2) were used for experimentation to avoid de-differentiation and loss of cartilage phenotype (Wu et al., 2014). Cartilage explants were made using 1, 2 or 8 mm biopsy punch and wet weight of each explant determined prior to experimentation. For cell isolation cartilage tissue was digested as described previously (Wu et al., 2015). Postnatal paraffin embedded joint and growth plate specimens were kindly donated by Dr Marcel Karperien from the University of Twente (Netherlands) and Dr Nick Bernthal from University of California Los Angeles. All donated material was anonymous and carried no personal identifiers. Cell culture reagents were purchased from Life Technologies, Inc. (Grand Island, N.Y.). Growth factors LIF, OSM, IL-6, TNF-α, IL-1β were purchased from Life Technologies, Inc (Grand Island, N.Y.). STATTIC, 10058-F4, SCl44 hydrochloride, and CP-690550 were purchased from Sigma Aldrich (St. Louis, Mo.). RCGD 423 (N-(4-Bromophenyl)-4-phenyl-1,3-thiazol-2-amine) was synthesized and provided by MolPort (Riga, Latvia). Fetal, adult and pig chondrocytes were cultured in DMEM F12 medium containing 10% (vol/vol) fetal bovine serum and 1% Penicillin-Streptomycin (vol/vol) at 37° C. in a humidified atmosphere of 95% aid and 5% CO2. Media was replenished with DMEM F12 medium containing 1% (vol/vol) fetal bovine serum and 1% Penicillin-Streptomycin (vol/vol) once treatments were added. For 3-dimensional (3D) cell cultures adult human articular chondrocytes were incubated with or without RCGD 423 using 10% solution of Mebiol® hydrogel from Cosmo Bio (Carlsbad, Calif.) in X-vivo 15 serum free medium from Lonza (Walkersville, Md.) as described previously (Wu et al., 2014).
(§1) Treated and non-treated ells were lysed in RIPA Lysis and Extraction Buffer (Pierce, Rockford, Ill.) containing protease inhibitors (Pierce) followed by sonication with a 15-second pulse at a power output of 2 using the VirSonic 100 (SP Industries Company, Warminster, Pa.). Protein concentrations were determined by BCA protein assay (Pierce). Proteins were resolved with SDS-PAGE utilizing 4-15% Mini-PROTEAN TGX Precast Gels and transferred to Trans-Blot Turbo Transfer Packs with a 0.2-μm pore-size nitrocellulose membrane. The SDS-PAGE running buffer, 4-15% Mini-PROTEAN TGX Precast Gels, Trans-Blot Turbo Transfer Packs with a 0.2-μm pore-size nitrocellulose membrane were purchased from Biorad (Hercules, Calif.). Nitrocellulose membranes were blocked in 5% nonfat milk in 0.05% (v/v) Tween 20 (PBST) (Corning, Manassas, Va.). Membranes were then incubated with primary antibodies phospho-STAT3 (#9131), MYC (#5605), NF-κB p65 (#D14E12), pAKT (#9272) Histone 3 (#9715) from Cell Signaling, (Danvers, Mass.); MEK1/2 (ab70613) and p38 (ab795) from Abcam (Cambridge, Mass.) overnight. After washing in PBS containing 0.05% (v/v) Tween 20 (PBST), membranes were incubated with Goat anti-Rabbit IgG (H+L) Secondary Antibody (Thermo Scientific Rockford, Ill.). After washing, membranes were developed with the Clarity Western ECL Blotting Substrate (Hercules, Calif.).

cartilage explants = assay: Cartilage explant culture: tissue expansion, COL2 and GAG content; assay type: cell-based, pig; settings: cartilage explants/plugs in culture
Description: The same stimulatory effect was achieved after treatment of explants with CRMs identified in our small molecule screen. […] This can test if activation of p-STAT3 and c-MYC by selected small molecules CRM-398 and -423 can result in in situ expansion of articular cartilage tissue.
Mature articular cartilage is comprised of chondrocytes contained within lacunae surrounded by dense extracellular matrix. In order for a regenerative response to occur, proliferation, survival and migration must all proceed in concert. […] We designed two sets of experiments to assess the ability of RCGD 423 to operate in this capacity. First, RCGD 423 or cytokines implicated in the growth and differentiation of articular cartilage were incubated with small plugs of cartilage tissue; after 5 weeks, the amount of COL2 and glycosaminoglycans (GAGs) were determined.
Cartilage explants were washed with PBS and then directly digested or stored at […]. For digestion, explants were transferred in digestion buffer composed of 1 mg/mL proteinase K in Tris/Ethylene diamine tetra-acetic acid (EDTA) buffer (pH 7.6) containing 18.5 μg/mL iodoacetamide and 1 μg/mL pepstatin A) for 16-72 h at 56° C. After complete digestion the GAG content was spectrophotometrically determined with 1,9-dimethylmethylene blue chloride staining in the phosphate buffer with ethylene diamine tetra-acetic acid buffer (14.2 g/L Na2HPO4 and 3.72 g/L Na2EDTA, pH 6.5) using an Infinite M1000 Pro microplate reader (Tecan) at an absorbance of 520 nm with chondroitin sulfate as a standard. Amount of total DNA in explants was determined by a CyQuant DNA Kit (Molecular Probes by Life Technology) using Qubit 1.0 fluorometer (Invitrogen).
Cultured explants were first digested in testicular hyaluronidase (0.05% in 50 mM HEPES) for 2 hours at 37° C. 0.5M glacial acetic acid was added to digestion solution to maximize the collagen swelling and provide best pepsin access. Pepsin (250 μg/ml) was then used to further digest the pellets in combination with rotation and occasional gentle vortexing at 4° C. for 18-24 hours. Cold tris base and NaOH were added to the digestion solution to neutralize the acetic acid. Digestion solution was vigorously vortexed immediately, and subsequently rotated at 4° C. overnight to maximize collagen solubility. Tubes were centrifuged to separate undigested tissue and supernatant. Any undigested tissue was subjected to the digestion process again. All supernatants were combined for ELISA. Concentration of collagen II in the supernatant was measured by Type I/II Collagen Detection Kit (Chondrex, Inc, Redmond, Wash.), according to manufacturer's instruction and normalized either to DNA content or wet weight of the explants determined prior to experimentation.

pSTAT3 and MYC [2] = assay: Western blot of pSTAT3 and MYC in human fetal articular chondrocytes; assay type: cell-based; settings: 72 hours
Description: Moreover, LIFR expression is localized to chondrocytes in the superficial zone of articular cartilage throughout ontogeny. In contrast, LIF expression is strongest during fetal development and then diminishes over time (Table S1). […] LIF signals through a heterodimeric receptor comprised of LIFR and gp130 (IL6RST); upon binding extracellular ligand, both receptors are phosphorylated and recruit members of the JAK family which in turn phosphorylate STAT3 (pSTAT3). pSTAT3 then enters the nucleus to act as a transcriptional regulator. […] We first performed ELISA on human fetal and adult synovial fluid to determine if LIF protein levels change over time. […] Western blot analysis of the downstream effectors of LIF signaling, pSTAT3 and MYC, further supported reduced levels of LIF signaling in adult articular cartilage (FIG. 26A). We then confirmed that adolescent and adult articular chondrocytes in the superficial zone express both receptors required for LIF signaling (FIG. 33) and that these cells are the most anabolic of adult chondrocytes (FIGS. 34A-34B). Because STAT3 and MYC can respond to a variety of stimuli, we next wanted to determine if the increased levels of pSTAT3 and MYC in fetal cells were a direct result of increased LIF/LIFR signaling.
as §1

[3] = tested on: MAPK, AKT, NF-κB pathways; assay: Western blot of MAPK, AKT and NF-κB signaling in adult pig articular chondrocytes; assay type: cell-based; settings: 24 hours
Procedure: FIGS. 30A-30B. […] (FIG. 30A) Adult pig articular chondrocytes were cultured for 24 hours with the indicated cytokines or RCGD 423 and the levels of pSTAT3 and MYC were measured with respect to histone H3. Representative data for other proteins in the MAPK (p38 and MEK1/2), AKT (phospho-AKT; pAKT) or NF-KB (NF-KB p65) are also shown. (FIG. 30B) Levels of transcription of genes indicative of a catabolic response were determined via quantitative PCR in adult pig articular chondrocytes treated with OSM, IL-6, TNF-α, LIF or RCGD 423. Data are represented at mean±SD.
Cartilage degeneration is generally considered a feed-forward process, in which small losses of chondrocytes result in microenvironmental changes including induction of an inflammatory response and other pro-catabolic events (Hunziker, 2002). In turn, these alterations in the joint milieu promote production of matrix degrading proteins including MMPs (collagenases) and proteins of the ADAMTS family (aggrecanases). LIF has been implicated in promoting this cycle of matrix destruction during the pathogenesis of osteoarthritis (Hui et al., 2000; Lotz et al., 1992), although its role in this process has been controversial. In order to better understand the mechanism of action of LIF, RCGD 423 and known pro-inflammatory cytokines in the promotion of degeneration, we stimulated adult pig articular chondrocytes with these molecules and quantitated the levels of activated downstream proteins that mediate the cellular signaling response (FIG. 30A).
as §1

C[C@@H]1CCN(C(=O)CC#N)C[C@@H]1N(C)c1ncnc2[nH]ccc12 [JAK inhibitor, reference compound]
ability of both LIF and RCGD 423 to induce increases in pSTAT3 and MYC (pSTAT3 and MYC [1]): greatly reduced

Cl.O=C(NNc1nc2cc(F)ccc2n2cccc12)c1cnccn1 [gp130 inhibitor, reference compound]
ability of both LIF and RCGD 423 to induce increases in pSTAT3 and MYC (pSTAT3 and MYC [1]): greatly reduced

TGF-beta 1: morphogen
expansion of cartilage tissue in explants (cartilage explants): little or no effect

B1: BMP4: driver of chondrocyte hypertrophy (protein, UniProt P12644 293-408, looked up)
Bone morphogenetic protein 4: SPKHHSQRARKKNKNCRRHSLYVDFSDVGWNDWIVAPPGYQAFYCHGDCPFPLADHLNSTNHAIVQTLVNSVNSSIPKACCVPTELSAISMLYLDEYDKVVLKNYQEMVVEGCGCR
expansion of cartilage tissue in explants (cartilage explants): little or no effect

B2: IL-la: inflammatory cytokine (protein, UniProt P01583 113-271, looked up)
Interleukin-1 alpha: SAPFSFLSNVKYNFMRIIKYEFILNDALNQSIIRANDQYLTAAALHNLDEAVKFDMGAYKSSKDDAKITVILRISKTQLYVTAQDEDQPVLLKEMPEIPKTITGSETNLLFFWETHGTKNYFTSVAHPNLFIATKQDYWVCLAGGPPSITDFQILENQA
levels of MYC (pSTAT3 and MYC [1]): inhibit accumulation | levels of pSTAT3 (pSTAT3 and MYC [1]): inhibit accumulation

B3: sLIFR: soluble LIFR, which binds and sequesters LIF (protein, UniProt P42702 45-833, looked up)
extracellular domain: QKKGAPHDLKCVTNNLQVWNCSWKAPSGTGRGTDYEVCIENRSRSCYQLEKTSIKIPALSHGDYEITINSLHDFGSSTSKFTLNEQNVSLIPDTPEILNLSADFSTSTLYLKWNDRGSVFPHRSNVIWEIKVLRKESMELVKLVTHNTTLNGKDTLHHWSWASDMPLECAIHFVEIRCYIDNLHFSGLEEWSDWSPVKNISWIPDSQTKVFPQDKVILVGSDITFCCVSQEKVLSALIGHTNCPLIHLDGENVAIKIRNISVSASSGTNVVFTTEDNIFGTVIFAGYPPDTPQQLNCETHDLKEIICSWNPGRVTALVGPRATSYTLVESFSGKYVRLKRAEAPTNESYQLLFQMLPNQEIYNFTLNAHNPLGRSQSTILVNITEKVYPHTPTSFKVKDINSTAVKLSWHLPGNFAKINFLCEIEIKKSNSVQEQRNVTIKGVENSSYLVALDKLNPYTLYTFRIRCSTETFWKWSKWSNKKQHLTTEASPSKGPDTWREWSSDGKNLIIYWKPLPINEANGKILSYNVSCSSDEETQSLSEIPDPQHKAEIRLDKNDYIISVVAKNSVGSSPPSKIASMEIPNDDLKIEQVVGMGKGILLTWHYDPNMTCDYVIKWCNSSRSEPCLMDWRKVPSNSTETVIESDEFRPGIRYNFFLYGCRNQGYQLLRSMIGYIEELAPIVAPNFTVEDTSADSILVKWEDIPVEELRGFLRGYLFYFGKGERDTSKMRVLESGRSDIKVKNITDISQKTLRIADLQGKTSYHLVLRAYTDGGVGPEKSMYVVTKENS
modifications: extracellular domain
levels of MYC (pSTAT3 and MYC [2]): substantially reduced | levels of pSTAT3 (pSTAT3 and MYC [2]): substantially reduced | levels of MYC (pSTAT3 and MYC [2]; listed as LIFR): reduces | levels of pSTAT3 (pSTAT3 and MYC [2]; listed as LIFR): reduces | levels of MYC (pSTAT3 and MYC [2]; listed as soluble LIF receptor): reduces | levels of pSTAT3 (pSTAT3 and MYC [2]; listed as soluble LIF receptor): reduces

B4: OSM: IL-6 family cytokine oncostatin M (protein, UniProt P13725 26-221, looked up)
Oncostatin-M: AAIGSCSKEYRVLLGQLQKQTDLMQDTSRLLDPYIRIQGLDVPKLREHCRERPGAFPSEETLRGLGRRGFLQTLNATLGCVLHRLADLEQRLPKAQDLERSGLNIEDLEKLQMARPNILGLRNNIYCMAQLLDNSDTAEPTKAGRGASQPPTPTPASDAFQRKLEGCRFLHGYHRFMHSVGRVFSKWGESPNRSRR
levels of MYC (pSTAT3 and MYC [1]): does not elicit any upregulation | levels of pSTAT3 (pSTAT3 and MYC [1]): does not elicit any upregulation | pro-inflammatory response [3]: strong pro-inflammatory response

B5: GDF5: BMPR1B ligand (protein, UniProt P43026 382-501, looked up)
Growth/differentiation factor …: APLATRQGKRPSKNLKARCSRKALHVNFKDMGWDDWIIAPLEYEAFHCEGLCEFPLRSHLEPTNHAVIQTLMNSMDPESTPPTCCVPTRLSPISILFIDSANNVVYKQYEDMVVESCGCR
expansion of cartilage tissue in explants (cartilage explants): little or no effect
